Laboratory results reported in FireProtDB (doi:10.1093/protein/gzi051).

B1: Alpha-lactalbumin, P00711 (parent)
chain: MMSFVSLLLVGILFHATQAEQLTKCEVFRELKDLKGYGGVSLPEWVCTTFHTSGYDTQAIVQNNDSTEYGLFQINNKIWCKDDQNPHSSNICNISCDKFLDDDLTDDIMCVKKILDKVGINYWLAHKALCSEKLDQWLCEKL

Variants of: B1
Conditions: Bos taurus, pH 7.7, Thermal, Fluorescence, HEPES-KOH 10 mM, structure 1HFZ, whole UniProt chain shown

Variant	Tm [°C]	Tm (CaCl2 1 mM) [°C]	change of melting temperature, mutant - wild type (higher = more stable) (CaCl2 1 mM) [°C]
MMSFVSLLLVGILFHATQAEQLTKCEVFRLLKDLKGYGGVSLPEWVCTTFHTSGYDTQAIVQNNDSTEYGLFQINNKIWCKDDQNPHSSNICNISCDKFLDDDLTDDIMCVKKILDKVGINYWLAHKALCSEKLDQWLCEKL [E30L]	27.5	–	–
MMSFVSLLLVGILFHATQAEQLTKCQVFRELKDLKGYGGVSLPEWVCTTFHTSGYDTQAIVQNNDSTEYGLFQINNKIWCKDDQNPHSSNICNISCDKFLDDDLTDDIMCVKKILDKVGINYWLAHKALCSEKLDQWLCEKL [E26Q]	27	67.7	7.9
MMSFVSLLLVGILFHATQAQQLTKCEVFRELKDLKGYGGVSLPEWVCTTFHTSGYDTQAIVQNNDSTEYGLFQINNKIWCKDDQNPHSSNICNISCDKFLDDDLTDDIMCVKKILDKVGINYWLAHKALCSEKLDQWLCEKL [E20Q]	23.5	–	–
MMSFVSLLLVGILFHATQAMQLTKCEVFRELKDLKGYGGVSLPEWVCTTFHTSGYDTQAIVQNNDSTEYGLFQINNKIWCKDDQNPHSSNICNISCDKFLDDDLTDDIMCVKKILDKVGINYWLAHKALCSEKLDQWLCEKL [E20M]	36.8	69.8	10
MMSFVSLLLVGILFHATQAEQLTKCEVFRELKDLKGYGGVSLPEWVCTTFHTSGYNTQAIVQNNDSTEYGLFQINNKIWCKDDQNPHSSNICNISCDKFLDDDLTDDIMCVKKILDKVGINYWLAHKALCSEKLDQWLCEKL [D56N]	31.7	74.2	14.4
MMSFVSLLLVGILFHATQAEQLTKCEVFRELKDLKGYGGVSLPAWVCTTFHTSGYDTQAIVQNNDSTEYGLFQINNKIWCKDDQNPHSSNICNISCDKFLDDDLTDDIMCVKKILDKVGINYWLAHKALCSEKLDQWLCEKL [E44A]	19.5	60.9	1.1
